{"source": "patent WO2009082624A2", "about": "(dated 2009)", "key": {"[1]": {"molecular_target": "T1, human IL-23 (p19/p40 heterodimer), recombinant (human, UniProt Q9NPF7 20-189; P29460 23-328)", "T1 construct": "R&D Systems without tags; eBioscience insect heterodimer; Whole entries named; also called hIL-23; rhIL-23", "T1 sequence 1": "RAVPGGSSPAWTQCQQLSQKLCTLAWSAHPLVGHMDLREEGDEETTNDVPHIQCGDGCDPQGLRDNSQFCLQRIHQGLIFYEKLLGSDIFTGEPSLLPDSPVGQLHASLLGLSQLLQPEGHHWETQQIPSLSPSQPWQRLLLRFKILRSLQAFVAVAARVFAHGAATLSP", "T1 sequence 2": "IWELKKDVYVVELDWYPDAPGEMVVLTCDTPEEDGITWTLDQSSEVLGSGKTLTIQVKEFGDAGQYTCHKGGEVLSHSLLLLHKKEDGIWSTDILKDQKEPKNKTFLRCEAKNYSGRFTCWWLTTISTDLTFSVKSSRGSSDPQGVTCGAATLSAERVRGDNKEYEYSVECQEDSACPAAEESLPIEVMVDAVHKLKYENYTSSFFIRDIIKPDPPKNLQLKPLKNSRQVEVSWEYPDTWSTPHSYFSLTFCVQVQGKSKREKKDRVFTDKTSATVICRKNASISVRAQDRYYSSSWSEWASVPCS", "assay": "SPR (Biacore T-100), IL-23 immobilised on CM5, bivalent interaction model"}, "[2]": {"molecular_target": "T1, human IL-23 (p19/p40 heterodimer), …", "assay": "cell-based or functional assay"}, "[3]": {"molecular_target": "T1, human IL-23 (p19/p40 heterodimer), …", "assay": "SPR off-rate analysis (Biacore T-100), IL-23 immobilised, 1:1 model"}}}
{"binder": "human IL-23R-Fc soluble receptor (ZymoGenetics) (Fc fusion) GITNINCSGHIWVEPATIFKMGMNISIYCQAAIKNCQPRKLHFYKNGIKERFQITRINKTTARLWYKNFLEPHASMYCTAECPKHFQETLICGKDISSGYPPDIPDEVTCVIYEYSGNMTCTWNAGKLTYIDTKYVVHVKSLETEEEQQYLTSSYINISTDSLQGGKKYLVWVQAANALGMEESKQLQIHLDDIVIPSAAVISRAETINATVPKTIIYWDSQTTIEKVSCEMRYKATTNQTWNVKEFDTNFTYVQQSEFYLEPNIKYVFQVRCQETGKRYWQPWSSPFFHKTPETVPQVTSKAFQHDTWNSGLTVASISTGHLTSDNRGDIG", "values": [{"measurement": "Kd", "setting": "[1]", "result": 0.8, "unit": "nM"}, {"measurement": "IC50, IL-23-mediated IL-17A/A production in murine splenocytes", "setting": "[2]", "result": 26, "unit": "nM"}, {"measurement": "koff", "setting": "[3]", "result": "~0.0004", "unit": "s⁻¹"}]}
